The experiment deals with calmodulin-Sepharose (calmodulin coupled to Sepharose beads) (UniProt P62157 1-149). Put plainly: pull-down.

Experimental findings from paper PMC3371134 (Journal of Neurochemistry, 2012) are described below.

For APETEKAALAIQGKFRRFQKRKKDS [Pcp4l1 IQ motif synthetic peptide], the binding result is recorded as “binds”.
